In the test the target is T1, Sp1 (Homo sapiens, UniProt P08047).
T1 construct: made in house
The test is described as follows: GST pull-down, TReP-132 and Sp1. Type of test: binding. The note with it: GST pull-down with 35S-Sp1, vs GST alone. The method, then: FIG. 13D: GST-TReP-132 proteins were incubated with ^35-[S]-Sp1 and immobilized on a glutathione-Sepharose column. Specific interactions were analyzed by comparison with the results obtained by incubating GST alone with ^35-[S]-Sp1. Sp1 input: 1/10th of radiolabelled Sp1 level used in the incubations.
In order to evaluate the interaction of TReP-132, Sp1, ER and PR, the wt and mutant GST-TReP-132 fusion proteins were expressed, then immobilized on glutathione-Sepharose as described (Frangioni and Neel, 1993; Monte et al., 1998). The ^35S-[Sp1], ^35S-[ER] and ^35S-[PR-B] proteins were synthesized in vitro using a rabbit reticulocyte lysate and T7 RNA polymerase system as directed by the manufacturer (Promega Corporation, Madison, Wis.). Proteins which bound, then detached from the Sepharose after being heated to boiling in SDS buffer were then separated on a 10% SDS-PAGE gel. The gels were stained with Coomassie blue, dried and autoradiographed.

T1 sequence (P08047 whole entry): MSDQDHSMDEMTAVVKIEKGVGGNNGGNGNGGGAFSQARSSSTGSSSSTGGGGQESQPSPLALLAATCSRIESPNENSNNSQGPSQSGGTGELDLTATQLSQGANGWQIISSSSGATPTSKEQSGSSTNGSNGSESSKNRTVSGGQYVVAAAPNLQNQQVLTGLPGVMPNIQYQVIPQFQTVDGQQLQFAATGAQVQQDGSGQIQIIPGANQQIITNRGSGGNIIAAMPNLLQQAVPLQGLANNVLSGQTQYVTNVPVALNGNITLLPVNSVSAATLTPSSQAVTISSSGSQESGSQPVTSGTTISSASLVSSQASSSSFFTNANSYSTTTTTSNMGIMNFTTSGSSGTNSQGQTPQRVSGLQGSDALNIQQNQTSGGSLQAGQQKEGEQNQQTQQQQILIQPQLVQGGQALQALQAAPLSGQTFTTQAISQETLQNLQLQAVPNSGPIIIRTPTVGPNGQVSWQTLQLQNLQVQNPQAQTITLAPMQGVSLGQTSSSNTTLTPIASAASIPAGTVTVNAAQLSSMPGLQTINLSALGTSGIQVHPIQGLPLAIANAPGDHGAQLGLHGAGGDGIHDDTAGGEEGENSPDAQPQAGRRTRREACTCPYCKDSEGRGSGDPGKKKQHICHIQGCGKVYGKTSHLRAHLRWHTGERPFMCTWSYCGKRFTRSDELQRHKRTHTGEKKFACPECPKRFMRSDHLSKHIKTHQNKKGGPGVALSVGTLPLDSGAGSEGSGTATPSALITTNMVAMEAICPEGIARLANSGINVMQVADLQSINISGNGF

B1: GST-TReP-132: in-frame fusion of the TReP-132 coding region downstream of GST in pGEX-2TK (protein)
chain: MGDQQLYKTNHVAHGSENLFYQQPPLGVHSGLNHNYGNAVTGGGMDAPQASPISPHFPQDTRDGLGLPVGSKNLGQMDTSRQGGWGSHAGPGNHVQLRGNLANSNMMWGAPAQAEPTDGYQYTYSQASEIRTQKLTSGVLHKLDSFTQVFANQNLRIQVNNMAQVLHTQSAVMDGAPDSALRQLLSQKPMEPPAPAIPSRYQQVPQQPHPGFTGGLSKPALQVGQHPTQGHLYYDYQQPLAQVPVQGGQPLQAPQMLSQHMQQMQQHQYYPPQQQQQAGQQRISMQEIQTQPQQIRPSQPQPPPQQQQPQQLQLQQRQGSMQIPQYYQPQPMMQHLQEQQQQQMHLQPPSYHRDPHQYTPEQAHTVQLIPLGSMSQYYYQEPQQPYSHPLYQQSHLSQHQQREDSQLKTYSSDRQAQAMLSSHGDLGPPDTGMGDPASSDLTRVSSTLPHRPLLSPSGIHLNNMGPQHQQLSPSAMWPQMHLPDGRAQPGSPESSGQPKGAFGEQFDAKNKLTCSICLKEFKNLPALNGHMRSHGGMRASPNLKQEEGEKVLPPQPQPPLPPPPPPPPPPQLPPEAESLTPMVMPVSVPVKLLPPKPSSQGFTNSTVAAPSARDKPASSMSDDEMPVLEIPRKHQPSVPKAEEPLKTVQEKKKFRHRPEPLFIPPPPSYNPNPAASYSGATLYQSQLRSPRVLGDHLLLDPTHELPPYTPPPMLSPVRQGSGLFSNVLISGHGPGAHPQLPLTPLTPTPRVLLCRSNSIDGSNVTVTPGPGEQTVDVEPRINIGLRFQAEIPELQDISALAQDTHKATLVWKPWPELENHDLQQRVENLLNLCCSSALPGGGTNSEFALHSLFEAKGDVMVALEMLLLRKPVRLKCHPLANYHYAGSDKWTSLERKLFNKALATYSKDFIFVQKMVKSKTVAQCVEYYYTWKKIMRLGRKHRTRLAEIIDDCVTSEEEEELEEEEEEDPEEDRKSTKEEESEVPKSPEPPPVPVLAPTEGPPLQALGQPSGSFICEMPNCGAVFSSRQALNGHARIHGGTNQVTKARGAIPSGKQKPGGTQSGYCSVKSSPSHSTTSGETDPTTIFPCKECGKVFFKIKSRNAHMKTHRQQEEQQRQKAQKAAFAAEMAATIERTTGPVGAPGLLPLDQLSLIKPIKDVDILDDDVVQQLGGVMEEAEVVDTDLLLDDQDSVLLQGDAEL
modifications: left off: a dimerising Fc or GST; large carriers; small tags and cut ends
notes: in-frame fusion of the TReP-132 coding region downstream of GST in pGEX-2TK
As for B1, the “interaction with Sp1” value is recorded as “protein/protein itneraction was observed”.

The record behind these values is patent publication US20080044436A1, “Method for Screening and Compositions for Treating Cancers” (priority 2004, published 2008).
